Assays:
Test in all cases: fluorescence polarisation
[1] = molecular target: soluble HLA-A*02:01 class I molecule (fluorescence polarization assay)
[2] = molecular target: soluble HLA-A*03:01 class I molecule (fluorescence polarization assay)
[3] = molecular target: soluble HLA-A*11:01 class I molecule (fluorescence polarization assay)
[4] = molecular target: soluble HLA-B*07:02 class I molecule (fluorescence polarization assay)

| Binder | IC50 [1] | IC50 [2] | IC50 [3] | IC50 [4] |
| --- | --- | --- | --- | --- |
| KLVVVGAGGV [KRAS 5-14 wild-type peptide] | 10.9 µM |  |  |  |
| VVVGARGVGK [KRAS G12R 7-16 peptide] |  | 3.24 µM | 0.566 µM |  |
| VVGARGVGK [KRAS G12R 8-16 peptide] |  | 5.3 µM | 0.634 µM |  |
| GAGGVGKSAL [KRAS 10-19 wild-type peptide] |  |  |  | 76.9 µM |
| ALLAVGATK [gp17-25 peptide, Melanocyte protein PMEL] |  | 0.962 µM | 0.225 µM |  |
| KLVVVGARGV [KRAS G12R 5-14 peptide] | 20.7 µM |  |  |  |

Source: article PMC8285372, “Biochemical and functional characterization of mutant KRAS epitopes validates this oncoprotein for immunological targeting” (Nature Communications, 2021)
